According to article PMC10408046, “Specific detection of tau seeding activity in Alzheimer’s disease using rationally designed biosensor cells” (Molecular Neurodegeneration, 2023):

B1: pseudoacetylated tau (244:378) P301L 3xKQ probe with (EAAAK)3 linker to mTurquoise2 or mNeonGreen (domain or fragment)
chain: QTAPVPMPDLKNVKSKIGSTENLKHQPGGGKVQIINKKLDLSNVQSKCGSKDNIKHVLGGGSVQIVYQPVDLSQVTSQCGSLGNIHHKPGGGQVEVKSEKLDFKDRVQSKIGSLDNITHVPGGGNKKIETHKLTFEAAAKEAAAKEAAAK
notes: microtubule associated protein tau, amino acids 244 to 378, P301L and lysines 311, 317 and 321 changed to glutamines to mimic acetylation (3xKQ); Both labelled copies come from one construct with a T2A self-cleaving peptide; a small amount of uncleaved polypeptide was seen by western blot; also called 3xKQ mutant; pseudoacetylated (EAAAK)3 probe; source: HEK293T, transiently transfected, in cells

Tests used:
[1] = target: pseudoacetylated tau (244:378) P301L 3xKQ probe with (EAAAK)3 linker to mTurquoise2 or mNeonGreen (UniProt P10636)
[2] = target: the molecule itself; assay: FRET or BRET; FRET between the two differently labelled copies of the probe, read by flow cytometry; HEK293T transiently transfected, exposed 24 h to serial dilutions of human AD brain extract with Lipofectamine 2000 (1% vol/vol) in Opti-MEM

| Molecule | seeding signal (FRET, flow cytometry) in the novel biosensor HEK293T clone 18: tau-immunodepleted AD brain material against the starting material [1] | fold increase in FRET-positive cells against the probe without 3xKQ [2] |
| --- | --- | --- |
| seeding-competent tau from human Alzheimer's disease brain (from UniProt P10636 1-758) (natural protein) | 82.3% |  |
| B1 |  | ~3 fold |
